Laboratory results taken from patent US20170073395A1 (Pfizer, published 2017).

B1: Par-RAGE IgG (rat anti-RAGE XT-M4 parental v-domains on the human IgG1 backbone) (antibody, V domains shown)
VH: EVQLVESGGGLVQPGRSLKLSCVVSGFTFNNYWMTWIRQTPGKGLEWVASIDNSGDNTYYPDSVKDRFTISRDNAKSTLYLQMNSLRSEDTATYYCTRGGDITTGFDYWGQGVMVTVSS
VL: DIQMTQSPSSMSVSLGDTITITCRASQDVGIYVNWFQQKPGKSPRRMIYRATNLADGVPSRFSGSRSGSIYSLTISSLESEDVADYHCLEFDEHPLTFGSGTKVEIK
notes: Human IgG1 backbone; also called XTM4 RAGE
B2: Chim-A33 IgG (rabbit anti-A33 parental v-domains on the human IgG1 backbone) (antibody, V domains shown)
VH: QEQLMESGGGLVTLGGSLKLSCKASGIDFSHYGISWVRQAPGKGLEWIAYIYPNYGSVDYASWVNGRFTISLDNAQNTVFLQMISLTAADTATYFCARDRGYYSGSRGTRLDLWGQGTLVTISS
VL: ELVMTQTPPSLSASVGETVRIRCLASEFLFNGVSWYQQKPGKPPKFLISGASNLESGVPPRFSGSGSGTDYTLTIGGVQAEDVATYYCLGGYSGSSGLTFGAGTNVEIK
notes: also called Par-A33; A33 Rabbit

Experiments:
hEGFR = biological target: T1, hEGFR (human, UniProt P00533 25-645, limits assumed); test: Biacore specificity assay: IgG immobilised (about 300 RU), antigen injected at 500 nM
T1 construct: Non-target panel protein
Protocol: (§1) Biacore specificity analyses were performed using the T-200 biosensor, series S CM5 chips, an amine-coupling kit, 10 mM sodium acetate immobilization buffer at pH 5.0, 10× HBS-P running buffer and NaOH for regeneration (GE Healthcare). A predefined ligand (IgG) immobilization program was set up to immobilize approximately 300 Response Units (RU) on the flow cell for each IgG to be tested. For Anti-RAGE and anti-A33, a panel of fully-purified recombinant target and non-target antigens were diluted in HBS-P running buffer to a final concentration of 500 nM. Four groups of antigens were examined, including: cell membrane proteins (mTRKB, hTRKB, mEGFR, hEGFR, hFceR1, hIL-21R, mICAM1, mICAM2, hICAM1, hCD33, hLAMP-1, hLOX-1, and), soluble signaling molecules (mTNFa, hVEGF, hCXCL13) and albumins (BSA, HSA and MSA). These proteins were injected at 50 μl/min for 3 min, followed by a 5 sec pulse of 20 mM NaOH for regeneration of the chip surface. For pTau, a series of pTau-derived phosphorylated and non-phosphorylated peptides were flowed, as in Shih et al.³. All sensorgrams were analyzed using the Biacore T-200 evaluation software.

mTNFa = biological target: T2, mTNFa (mouse, UniProt P06804 80-235); test: as above
T2 construct: Non-target panel protein
T2 sequence (looked up): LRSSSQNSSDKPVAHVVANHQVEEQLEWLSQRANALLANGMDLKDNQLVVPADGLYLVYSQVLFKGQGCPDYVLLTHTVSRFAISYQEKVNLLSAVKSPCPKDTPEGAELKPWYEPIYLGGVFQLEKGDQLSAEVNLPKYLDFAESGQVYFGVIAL
Protocol: as §1

hCXCL13 = biological target: T3, hCXCL13 (human, UniProt O43927 23-109); test: as above
T3 construct: Non-target panel protein
T3 sequence (looked up): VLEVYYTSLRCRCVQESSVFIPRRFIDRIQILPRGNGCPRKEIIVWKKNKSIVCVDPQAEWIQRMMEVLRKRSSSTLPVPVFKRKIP
Protocol: as §1

mICAM1 = biological target: T4, mICAM1 (mouse, UniProt P13597 28-485, limits assumed); test: as above
T4 construct: Non-target panel protein
T4 sequence (P13597 28-485 limits assumed): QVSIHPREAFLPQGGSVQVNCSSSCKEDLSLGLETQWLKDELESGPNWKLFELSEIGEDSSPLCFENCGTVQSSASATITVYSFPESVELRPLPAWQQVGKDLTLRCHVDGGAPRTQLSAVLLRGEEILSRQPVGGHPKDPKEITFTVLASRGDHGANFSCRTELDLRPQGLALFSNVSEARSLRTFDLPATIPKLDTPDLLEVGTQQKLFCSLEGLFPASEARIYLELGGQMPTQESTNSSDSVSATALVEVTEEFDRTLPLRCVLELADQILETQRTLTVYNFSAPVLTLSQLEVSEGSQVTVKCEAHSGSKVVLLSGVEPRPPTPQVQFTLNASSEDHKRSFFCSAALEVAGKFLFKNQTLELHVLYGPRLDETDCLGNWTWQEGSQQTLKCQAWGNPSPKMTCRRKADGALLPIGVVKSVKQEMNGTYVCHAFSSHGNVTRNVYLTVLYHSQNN
Protocol: as §1

hICAM1 = biological target: T5, hICAM1 (human, UniProt P05362 28-480, limits assumed); test: as above
T5 construct: Non-target panel protein
T5 sequence (P05362 28-480 limits assumed): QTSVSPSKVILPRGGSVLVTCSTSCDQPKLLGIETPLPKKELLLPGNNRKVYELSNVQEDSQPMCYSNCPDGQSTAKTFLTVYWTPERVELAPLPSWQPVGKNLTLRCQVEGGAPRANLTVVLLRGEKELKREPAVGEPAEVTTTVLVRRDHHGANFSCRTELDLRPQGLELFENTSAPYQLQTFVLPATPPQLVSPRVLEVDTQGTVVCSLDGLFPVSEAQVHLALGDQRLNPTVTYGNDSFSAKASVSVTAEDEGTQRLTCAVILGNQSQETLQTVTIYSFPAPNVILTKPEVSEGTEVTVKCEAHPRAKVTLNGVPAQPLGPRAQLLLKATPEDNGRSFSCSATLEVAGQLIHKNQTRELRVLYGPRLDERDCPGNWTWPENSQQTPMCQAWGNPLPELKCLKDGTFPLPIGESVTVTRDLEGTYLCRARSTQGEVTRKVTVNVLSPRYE
Protocol: as §1

hCD33 = biological target: T6, hCD33 (human, UniProt P20138 18-259, limits assumed); test: as above
T6 construct: Non-target panel protein
T6 sequence (P20138 18-259 limits assumed): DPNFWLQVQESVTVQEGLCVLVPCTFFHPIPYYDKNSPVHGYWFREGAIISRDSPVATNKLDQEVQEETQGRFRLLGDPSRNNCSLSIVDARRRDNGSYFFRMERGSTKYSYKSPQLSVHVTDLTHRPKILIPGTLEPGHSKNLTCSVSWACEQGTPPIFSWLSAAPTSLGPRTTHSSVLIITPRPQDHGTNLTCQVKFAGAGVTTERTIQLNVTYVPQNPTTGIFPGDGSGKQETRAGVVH
Protocol: as §1

hVEGF = biological target: T7, hVEGF (human, UniProt P15692-4 27-191, limits assumed); test: as above
T7 construct: Non-target panel protein
T7 sequence (P15692 other isoform, or with tags, fused parts or gaps limits assumed): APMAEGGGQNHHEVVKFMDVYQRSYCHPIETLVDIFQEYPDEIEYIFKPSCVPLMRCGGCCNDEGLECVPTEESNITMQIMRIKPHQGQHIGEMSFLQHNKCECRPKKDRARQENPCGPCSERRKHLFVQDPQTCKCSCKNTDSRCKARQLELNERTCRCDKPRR
Protocol: as §1

hIL-21R = biological target: T8, hIL-21R (human, UniProt Q9HBE5 20-232, limits assumed); test: as above
T8 construct: Non-target panel protein
T8 sequence (Q9HBE5 20-232 limits assumed): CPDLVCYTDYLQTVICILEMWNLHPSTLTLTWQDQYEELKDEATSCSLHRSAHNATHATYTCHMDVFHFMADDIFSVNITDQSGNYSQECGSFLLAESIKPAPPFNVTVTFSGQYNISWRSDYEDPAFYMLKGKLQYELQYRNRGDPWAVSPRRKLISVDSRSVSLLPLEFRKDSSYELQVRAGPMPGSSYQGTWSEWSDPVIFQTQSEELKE
Protocol: as §1

hLOX-1 = hLOX-1 (human, UniProt P78380 61-273); test: as above
Protocol: as §1

hFceR1 = biological target: T9, hFceR1 (human, UniProt P12319 26-205); test: as above
T9 construct: Non-target panel protein
T9 sequence (alpha): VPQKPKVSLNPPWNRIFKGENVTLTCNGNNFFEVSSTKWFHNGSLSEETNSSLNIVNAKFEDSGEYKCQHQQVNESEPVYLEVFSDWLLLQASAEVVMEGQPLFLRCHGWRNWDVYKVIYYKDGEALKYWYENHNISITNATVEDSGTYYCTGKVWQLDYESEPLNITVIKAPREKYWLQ
Protocol: as §1

hLAMP-1 = biological target: T10, hLAMP-1 (human, UniProt P11279 29-382, limits assumed); test: as above
T10 construct: Non-target panel protein
T10 sequence (looked up): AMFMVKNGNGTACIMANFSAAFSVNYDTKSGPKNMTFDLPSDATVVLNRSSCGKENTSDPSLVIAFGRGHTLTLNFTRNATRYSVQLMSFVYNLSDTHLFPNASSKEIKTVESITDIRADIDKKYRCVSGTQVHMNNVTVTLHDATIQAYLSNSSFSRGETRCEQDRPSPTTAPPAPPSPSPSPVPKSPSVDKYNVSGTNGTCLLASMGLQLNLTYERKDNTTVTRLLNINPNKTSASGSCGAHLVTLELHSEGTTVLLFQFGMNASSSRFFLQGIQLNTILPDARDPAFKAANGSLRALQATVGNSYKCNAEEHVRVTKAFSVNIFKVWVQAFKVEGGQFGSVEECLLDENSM
Protocol: as §1

mICAM2 = biological target: T11, mICAM2 (mouse, UniProt P35330 23-222, limits assumed); test: as above
T11 construct: Non-target panel protein
T11 sequence (looked up): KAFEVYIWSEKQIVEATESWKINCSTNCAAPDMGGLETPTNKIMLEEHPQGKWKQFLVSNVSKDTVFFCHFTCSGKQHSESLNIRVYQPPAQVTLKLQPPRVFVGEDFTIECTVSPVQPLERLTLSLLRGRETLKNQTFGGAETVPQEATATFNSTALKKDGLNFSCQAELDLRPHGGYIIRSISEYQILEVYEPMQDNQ
Protocol: as §1

mTRKB = biological target: T12, mTRKB (mouse, UniProt P15209 32-429, limits assumed); test: as above
T12 construct: Non-target panel protein
T12 sequence (P15209 32-429 limits assumed): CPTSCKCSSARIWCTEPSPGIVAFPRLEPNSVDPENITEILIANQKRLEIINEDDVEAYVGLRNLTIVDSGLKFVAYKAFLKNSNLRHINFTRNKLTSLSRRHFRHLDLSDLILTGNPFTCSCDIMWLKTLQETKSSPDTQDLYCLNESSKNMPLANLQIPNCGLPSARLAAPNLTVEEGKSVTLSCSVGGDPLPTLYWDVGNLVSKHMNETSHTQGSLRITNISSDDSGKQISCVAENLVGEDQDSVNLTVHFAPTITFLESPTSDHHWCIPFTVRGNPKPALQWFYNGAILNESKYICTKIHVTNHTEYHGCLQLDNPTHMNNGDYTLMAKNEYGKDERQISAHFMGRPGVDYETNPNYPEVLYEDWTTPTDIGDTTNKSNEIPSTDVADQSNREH
Protocol: as §1

hTRKB = biological target: T13, hTRKB (human, UniProt Q16620 32-430, limits assumed); test: as above
T13 construct: Non-target panel protein
T13 sequence (Q16620 32-430 limits assumed): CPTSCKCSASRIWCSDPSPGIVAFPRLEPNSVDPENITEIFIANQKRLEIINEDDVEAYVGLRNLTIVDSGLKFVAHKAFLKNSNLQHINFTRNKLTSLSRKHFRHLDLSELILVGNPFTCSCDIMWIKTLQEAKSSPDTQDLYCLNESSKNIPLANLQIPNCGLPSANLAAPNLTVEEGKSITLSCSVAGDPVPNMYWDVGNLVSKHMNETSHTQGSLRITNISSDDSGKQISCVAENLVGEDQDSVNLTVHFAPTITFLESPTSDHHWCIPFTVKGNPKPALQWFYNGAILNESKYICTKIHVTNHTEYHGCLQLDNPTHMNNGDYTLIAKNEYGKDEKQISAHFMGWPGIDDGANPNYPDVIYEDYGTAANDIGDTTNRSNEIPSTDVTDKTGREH
Protocol: as §1

mEGFR = biological target: T14, mEGFR (mouse, UniProt Q01279 25-647, limits assumed); test: as above
T14 construct: Non-target panel protein
Protocol: as §1

mRAGE = biological target: T15, mRAGE (mouse, UniProt Q62151 24-342, limits assumed); test: Biacore specificity assay: IgG immobilised (about 300 RU), antigen m-RAGE-fc injected at 500 nM
T15 construct: also called mouse RAGE
T15 sequence (Q62151 24-342 limits assumed): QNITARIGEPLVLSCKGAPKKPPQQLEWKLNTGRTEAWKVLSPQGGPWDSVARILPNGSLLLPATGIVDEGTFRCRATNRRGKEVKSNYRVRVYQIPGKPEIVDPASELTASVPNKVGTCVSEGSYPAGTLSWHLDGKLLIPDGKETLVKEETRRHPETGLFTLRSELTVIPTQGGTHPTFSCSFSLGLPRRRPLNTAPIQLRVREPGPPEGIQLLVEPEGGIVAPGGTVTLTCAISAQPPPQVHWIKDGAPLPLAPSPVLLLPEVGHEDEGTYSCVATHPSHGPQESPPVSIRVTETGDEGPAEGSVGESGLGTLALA
Protocol: as §1

hRAGE = biological target: T16, hRAGE (human, UniProt Q15109 24-344, limits assumed); test: Biacore specificity assay: IgG immobilised (about 300 RU), antigen h-RAGE-fc injected at 500 nM
T16 construct: also called human RAGE
T16 sequence (Q15109 24-344 limits assumed): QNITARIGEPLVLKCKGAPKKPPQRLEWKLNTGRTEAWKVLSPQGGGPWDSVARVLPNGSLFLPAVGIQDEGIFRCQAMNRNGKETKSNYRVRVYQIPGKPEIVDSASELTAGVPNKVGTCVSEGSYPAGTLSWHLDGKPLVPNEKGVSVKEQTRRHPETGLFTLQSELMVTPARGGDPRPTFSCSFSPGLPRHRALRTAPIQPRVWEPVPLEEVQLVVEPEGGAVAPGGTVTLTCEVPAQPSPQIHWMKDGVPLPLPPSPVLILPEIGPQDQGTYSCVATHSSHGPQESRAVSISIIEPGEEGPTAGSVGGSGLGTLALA
Protocol: as §1

[1] = biological target: T17, Human A33 ectodomain protein (human, UniProt Q99795 22-235); test: Biacore T-200 SPR, IgG immobilised (~100 RU), purified target protein injected
T17 construct: extracellular domain
T17 sequence (looked up): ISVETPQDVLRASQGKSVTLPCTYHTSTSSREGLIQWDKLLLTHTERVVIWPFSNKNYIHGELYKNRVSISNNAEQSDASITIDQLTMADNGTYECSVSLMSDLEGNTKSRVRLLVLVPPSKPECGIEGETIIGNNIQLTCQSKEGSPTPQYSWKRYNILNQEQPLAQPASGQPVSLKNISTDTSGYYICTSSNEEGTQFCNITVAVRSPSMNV
Protocol: Biacore analysis was performed using the T-200 biosensor, series S CM5 chips, an amine-coupling kit, 10 mM sodium acetate immobilization buffer at pH 5.0, 10×HBS-P running buffer and NaOH for regeneration (GE Healthcare). Kinetic assay conditions were established to minimize the influence of mass transfer, avidity and rebinding events. A predefined ligand immobilization program was set up to immobilize approximately 100 Response Units (RU) of IgG on the chip. Purified target proteins were diluted in HBS-P running buffer to a range of final concentrations and injected at 50 μl/min for 3 mins. Dissociation was allowed to proceed for 10 min followed by a 5 sec pulse of 20 mM NaOH for regeneration of the chip surface. All sensorgrams were analyzed using the Biacore T-200 evaluation software.

[2] = biological target: T17, Human A33 ectodomain protein; test: HTRF epitope competition, IgG titrated; competitor parental IgG (Par-A33)

Binder	binding result (hEGFR)	binding result (mTNFa)	binding result (hCXCL13)	binding result (mICAM1)	binding result (hICAM1)	binding result (hCD33)	binding result (hVEGF)	binding result (hIL-21R)	binding result (hLOX-1)	binding result (hFceR1)	binding result (hLAMP-1)	binding result (mICAM2)	binding result (mTRKB)	binding result (hTRKB)	binding result (mEGFR)	binding result (mRAGE)	binding result (hRAGE)	Kd [1] [nM]	IC50 [2] [nM]
B1	no binding (tested: 500 nM)	no binding (tested: 500 nM)	no binding (tested: 500 nM)	no binding (tested: 500 nM)	no binding (tested: 500 nM)	no binding (tested: 500 nM)	no binding (tested: 500 nM)	no binding (tested: 500 nM)	no binding (tested: 500 nM)	no binding (tested: 500 nM)	no binding (tested: 500 nM)	no binding (tested: 500 nM)	no binding (tested: 500 nM)	no binding (tested: 500 nM)	no binding (tested: 500 nM)	binds	binds		
B2	no binding (tested: 500 nM)	no binding (tested: 500 nM)	no binding (tested: 500 nM)	no binding (tested: 500 nM)	no binding (tested: 500 nM)	no binding (tested: 500 nM)	no binding (tested: 500 nM)	no binding (tested: 500 nM)	no binding (tested: 500 nM)	no binding (tested: 500 nM)	no binding (tested: 500 nM)	no binding (tested: 500 nM)	no binding (tested: 500 nM)	no binding (tested: 500 nM)	no binding (tested: 500 nM)			2.1	2.9
